{"source": "patent US20050239064A1", "about": "(published 2005)", "binders": {"B1": {"name": "entire intracellular domain of Drosophila Notch, expressed from pcDNA3 in 293T cells (receptor, UniProt P07207 1767-2703, looked up)", "chain": "QRKRAHGVTWFPEGFRAPAAVMSRRRRDPHGQEMRNLNKQVAMQSQGVGQPGAHWSDDESDMPLPKRQRSDPVSGVGLGNNGGYASDHTMVSEYEEADQRVWSQAHLDVVDVRAIMTPPAHQDGGKHDVDARGPCGLTPLMIAAVRGGGLDTGEDIENNEDSTAQVISDLLAQGAELNATMDKTGETSLHLAARFARADAAKRLLDAGADANCQDNTGRTPLHAAVAADAMGVFQILLRNRATNLNARMHDGTTPLILAARLAIEGMVEDLITADADINAADNSGKTALHWAAAVNNTEAVNILLMHHANRDAQDDKDETPLFLAAREGSYEACKALLDNFANREITDHMDRLPRDVASERLHHDIVRLLDEHVPRSPQMLSMTPQAMIGSPPPGQQQPQLITQPTVISAGNGGNNGNGNASGKQSNQTAKQKAAKKAKLIEGSPDNGLDATGSLRRKASSKKTSAASKKAANLNGLNPGQLTGGVSGVPGVPPTNSAAQAAAAAAAAVAAMSHELEGSPVGVGMGGNLPSPYDTSSMYSNAMAAPLANGNPNTGAKQPPSYEDCIKNAQSMQSLQGNGLDMIKLDNYAYSMGSPFQQELLNGQGLGMNGNGQRNGVGPGVLPGGLCGMGGLSGAGNGNSHEQGLSPPYSNQSPPHSVQSSLALSPHAYLGSPSPAKSRPSLPTSPTHIQAMRHATQQKQFGGSNLNSLLGGANGGGVVGGGGGGGGGVGQGPQNSPVSLGIISPTGSDMGIMLAPPQSSKNSAIMQTISPQQQQQQQQQQQQQHQQQQQQQQQQQQQQQQQLGGLEFGSAGLDLNGFCGSPDSFHSGQMNPPSIQSSMSGSSPSTNMLSPSSQHNQQAFYQYLTPSSQHSGGHTPQHLVQTLDSYPTPSPESPGHWSSSSPRSNSDWSEGVQSPAANNLYISGGHQANKGSEAIYI", "notes": "domain: entire intracellular domain; also called intracellular Notch"}, "B2": {"name": "Mip6 two-hybrid clone, amino-terminally truncated, fused to the E. coli B42 transactivation domain encoded by pJG4-5 (other, not shown: large carriers)", "chain": "PKTKQSTFVVSPKPEPKSPAVAFLQPSIPLRSSNQPQTVVGSSSTGRKPLNVGLTMEWTKKKFFSAASGIPQRRQNQIKQPYANIVSPIRTYTQKSGTAPLMSTFRPTSSDMLSTLAISELEQESRLCHPKALFATKDETPKSSEAESLIINGIDSAADLLPKKAYISSEIKHVVDERTPLPMPKVPQIQKYLNSAVEPTVMRHDGKMKMPGEAVRNPSSSHIPRRANHSLADLSLASGDVSLYTIRDAQKF"}}, "key": {"[1]": {"target": "T1, Drosophila Mastermind (Mam) tagged at its amino terminus with the Flag epitope, expressed from pcDNA3 in 293T … (Drosophila, UniProt P21519 1-1594)", "T1 construct": "Expressed inside transfected human 293T cells", "T1 sequence (P21519 other isoform, or with tags, fused parts or gaps)": "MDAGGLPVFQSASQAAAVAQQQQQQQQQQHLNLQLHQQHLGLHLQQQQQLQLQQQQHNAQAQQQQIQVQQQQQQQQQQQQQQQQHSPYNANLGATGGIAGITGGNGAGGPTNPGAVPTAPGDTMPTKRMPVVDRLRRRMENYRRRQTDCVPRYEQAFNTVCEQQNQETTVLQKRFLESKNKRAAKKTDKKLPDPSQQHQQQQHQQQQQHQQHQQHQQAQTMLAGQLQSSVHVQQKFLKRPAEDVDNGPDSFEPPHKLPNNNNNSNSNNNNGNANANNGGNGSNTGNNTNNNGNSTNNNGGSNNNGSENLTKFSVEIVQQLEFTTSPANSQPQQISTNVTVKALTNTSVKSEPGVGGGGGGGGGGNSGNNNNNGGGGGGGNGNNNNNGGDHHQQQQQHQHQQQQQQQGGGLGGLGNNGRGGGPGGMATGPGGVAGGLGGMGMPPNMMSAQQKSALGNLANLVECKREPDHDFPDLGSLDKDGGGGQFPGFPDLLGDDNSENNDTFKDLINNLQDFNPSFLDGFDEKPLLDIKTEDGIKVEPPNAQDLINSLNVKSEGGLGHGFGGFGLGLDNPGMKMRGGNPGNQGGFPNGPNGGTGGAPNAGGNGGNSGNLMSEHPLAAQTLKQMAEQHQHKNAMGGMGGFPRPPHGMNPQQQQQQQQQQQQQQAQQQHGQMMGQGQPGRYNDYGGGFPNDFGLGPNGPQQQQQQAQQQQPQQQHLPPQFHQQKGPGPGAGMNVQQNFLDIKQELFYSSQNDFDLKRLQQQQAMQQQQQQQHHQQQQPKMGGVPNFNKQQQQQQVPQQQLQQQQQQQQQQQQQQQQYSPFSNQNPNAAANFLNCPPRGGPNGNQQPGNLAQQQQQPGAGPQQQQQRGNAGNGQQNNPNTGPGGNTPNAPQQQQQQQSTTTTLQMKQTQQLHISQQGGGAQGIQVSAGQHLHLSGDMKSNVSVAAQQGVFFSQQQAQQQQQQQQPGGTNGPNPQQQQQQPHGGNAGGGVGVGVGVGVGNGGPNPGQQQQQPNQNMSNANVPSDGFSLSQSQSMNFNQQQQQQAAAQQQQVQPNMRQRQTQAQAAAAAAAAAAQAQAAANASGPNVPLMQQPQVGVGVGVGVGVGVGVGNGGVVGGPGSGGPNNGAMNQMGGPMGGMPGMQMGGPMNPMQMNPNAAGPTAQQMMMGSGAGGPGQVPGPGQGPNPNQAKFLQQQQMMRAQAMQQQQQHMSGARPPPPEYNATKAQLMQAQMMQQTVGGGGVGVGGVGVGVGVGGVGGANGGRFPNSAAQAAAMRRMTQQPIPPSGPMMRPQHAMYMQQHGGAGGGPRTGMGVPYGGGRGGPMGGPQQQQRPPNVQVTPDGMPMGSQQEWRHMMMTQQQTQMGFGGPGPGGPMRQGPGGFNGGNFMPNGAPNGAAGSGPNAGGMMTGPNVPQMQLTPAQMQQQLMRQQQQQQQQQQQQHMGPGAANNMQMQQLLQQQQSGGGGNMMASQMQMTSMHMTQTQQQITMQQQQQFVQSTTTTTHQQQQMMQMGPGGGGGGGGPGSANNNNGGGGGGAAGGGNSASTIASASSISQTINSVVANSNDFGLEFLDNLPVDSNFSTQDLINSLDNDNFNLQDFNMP", "experiment": "co-expression in 293T cells, indirect immunofluorescence", "from_the_text": "Mastermind and the entire intracellular domain of Drosophila Notch were co-expressed from pcDNA3 vectors (obtained from Invitrogen, Carlsbad, Calif.). Intracellular Notch was visualized with the 9C6 monoclonal antibody (Rebay, 1983, Thesis, Yale University) and a Cy-2-conjugated goat anti-mouse IgG secondary antibody. Flag epitope-tagged Mam was visualized with an anti-Flag polyclonal antibody and a Cy-5-conjugated goat anti-rabbit secondary antibody. Nuclei were counterstained with DAPI. In the absence of Mam, intracellular Notch is homogeneously distributed throughout the nucleoplasm; however, when co-expressed with Mam, intracellular Notch accumulates in nuclear bodies."}, "[2]": {"target": "T2, truncated Mam protein (carboxy-terminal 32 amino acids of full-length Drosophila Mastermind deleted) fused to … (Drosophila, UniProt P21519 1-1562)", "T2 construct": "also called truncated Mam fusion protein", "T2 sequence (P21519 other isoform, or with tags, fused parts or gaps limits assumed)": "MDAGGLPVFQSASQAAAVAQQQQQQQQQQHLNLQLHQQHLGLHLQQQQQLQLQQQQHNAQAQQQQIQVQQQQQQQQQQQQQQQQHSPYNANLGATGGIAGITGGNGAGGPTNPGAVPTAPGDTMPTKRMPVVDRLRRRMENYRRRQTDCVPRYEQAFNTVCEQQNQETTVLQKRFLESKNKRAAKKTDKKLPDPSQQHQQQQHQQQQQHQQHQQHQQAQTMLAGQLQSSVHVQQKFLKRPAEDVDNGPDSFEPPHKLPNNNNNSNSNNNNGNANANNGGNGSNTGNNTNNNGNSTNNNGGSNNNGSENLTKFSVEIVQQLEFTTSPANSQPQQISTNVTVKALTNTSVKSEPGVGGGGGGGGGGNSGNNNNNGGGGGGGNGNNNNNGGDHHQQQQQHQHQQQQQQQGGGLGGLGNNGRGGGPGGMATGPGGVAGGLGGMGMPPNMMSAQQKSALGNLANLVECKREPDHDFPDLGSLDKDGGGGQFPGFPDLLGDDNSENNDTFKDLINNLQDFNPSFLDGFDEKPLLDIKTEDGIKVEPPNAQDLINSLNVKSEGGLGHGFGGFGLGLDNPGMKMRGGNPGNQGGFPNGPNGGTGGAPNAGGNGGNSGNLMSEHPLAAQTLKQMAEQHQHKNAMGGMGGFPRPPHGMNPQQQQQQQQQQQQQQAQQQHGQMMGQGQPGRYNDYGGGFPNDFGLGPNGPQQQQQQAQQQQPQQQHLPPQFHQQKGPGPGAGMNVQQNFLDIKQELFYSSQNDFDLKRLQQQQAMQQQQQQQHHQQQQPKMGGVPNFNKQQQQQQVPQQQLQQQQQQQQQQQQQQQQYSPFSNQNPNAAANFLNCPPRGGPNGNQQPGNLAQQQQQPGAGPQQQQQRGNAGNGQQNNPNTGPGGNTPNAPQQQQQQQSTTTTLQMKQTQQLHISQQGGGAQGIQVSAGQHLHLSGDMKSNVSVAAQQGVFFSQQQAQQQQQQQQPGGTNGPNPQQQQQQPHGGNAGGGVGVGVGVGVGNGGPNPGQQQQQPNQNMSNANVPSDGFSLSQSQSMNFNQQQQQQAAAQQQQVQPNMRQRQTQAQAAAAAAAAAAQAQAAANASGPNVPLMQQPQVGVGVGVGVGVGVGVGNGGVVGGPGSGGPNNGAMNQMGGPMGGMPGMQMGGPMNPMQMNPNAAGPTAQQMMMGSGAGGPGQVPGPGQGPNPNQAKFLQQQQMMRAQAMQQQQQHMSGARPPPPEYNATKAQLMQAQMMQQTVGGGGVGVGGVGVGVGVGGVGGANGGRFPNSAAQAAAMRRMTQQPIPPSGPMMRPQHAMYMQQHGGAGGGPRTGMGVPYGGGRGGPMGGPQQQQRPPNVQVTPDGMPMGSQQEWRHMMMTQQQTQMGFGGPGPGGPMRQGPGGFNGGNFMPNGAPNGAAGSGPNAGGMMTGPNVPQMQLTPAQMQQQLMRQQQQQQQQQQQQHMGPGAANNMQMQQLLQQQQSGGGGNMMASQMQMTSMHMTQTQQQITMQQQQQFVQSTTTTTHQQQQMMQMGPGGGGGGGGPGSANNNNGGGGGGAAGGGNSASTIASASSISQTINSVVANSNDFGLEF", "experiment": "yeast two-hybrid, lacZ reporter", "from_the_text": "FIG. 13 is a graph showing Mam-Mip complex driven transcription in a two-hybrid analysis in yeast. The yeast strain EGY48 was co-transformed with a plasmid encoding a Mam-Gal4 DNA binding domain fusion protein and either a plasmid encoding Mip1, Mip30 or Mip6 fused to the E. coli B42 transactivation domain, or a control plasmid (pJG4-5). The DNA binding domain was derived from plasmid pEG202. […] In the presence of glucose, the expression of Mam is repressed and only a very low level of β-galactosidase activity is detected. In the presence of galactose, the expression of Mam is induced and a large increase in β-galactosidase activity is observed with those proteins that interact with Mam. Extracts were prepared and activity measured from equal number of cells.\nTo elucidate the function of Mam and its role in Notch signaling, proteins with which Mam interacts were identified. Complementary DNA encoding a truncated Mam protein, in which the carboxy-terminal 32 amino acids of full-length Mam were deleted, was fused to the Gal4 DNA-binding domain encoded by the yeast expression vector pEG202. A truncated Mam fusion protein was used because it elicited a lower autonomous transactivational response from yeast reporter genes than full-length Mam. […]"}}, "data": [{"binder": "B1", "values": [{"measurement": "binding result", "setting": "[1]", "value": "binds"}]}, {"binder": "B2", "values": [{"measurement": "binding result", "setting": "[2]", "value": "binds"}]}]}
